Bridges are numbered along the chain shown (N, C = ends). Roman numbers before positions name the chains, in order. Where no end group is shown, it is not given here. [ ]: non-standard residue; d: D form. Phe(4-NH2) = Nc1ccc(C[C@H](N)C(=O)O)cc1
B1: IGF-1 A: B (E10Y16L17) DPI (ligand)
A chain: GIVDECCFRSCDLRRLEMYCA-NH2
B chain: GPETLCGAELVDALYLVCGDRGFY-NH2
modifications: disulfide I:6-I:11, I:20-II:18, I:7-II:6; not fully specified
B2: IGF-1 A: B (D10Y16L17) DPI A-COOH (ligand)
chain 1: GIVDECCFRSCDLRRLEMYCA-OH
chain 2: GPETLCGADLVDALYLVCGDRGFY-NH2
modifications: disulfide I:6-I:11, I:20-II:18, I:7-II:6; ends not checked
B3: IGF-1 A (H8 A9 N21): B(H5D10Y16L17) DPI A-COOH (ligand)
chain 1: GIVDECCHASCDLRRLEMYCN-OH
chain 2: GPEHLCGADLVDALYLVCGDRGFY-NH2
modifications: disulfide I:6-I:11, I:20-II:18, I:7-II:6; ends not checked
B4: IGF-1 A: IGF-1 B (1-8)-In (9-17)-IGF-1 B (18-30) (ligand)
chain 1: GIVDECCFRSCDLRRLEMYCA-NH2
chain 2: GPETLCGSHLVEALYLVCGDRGFYFNKPT-NH2
modifications: disulfide I:6-I:11, I:20-II:18, I:7-II:6; ends not checked
B5: IGF1 A:B(Y^B16L^B17)(p-NH2-F)^A19amide (ligand)
chain 1: GIVDECCFRSCDLRRLEM[Phe(4-NH2)]CA
chain 2: GPETLCGAELVDALYLVCGDRGFYFNKPT-NH2
modifications: disulfide (positions not given here); not fully specified (bridges); also: C-terminal amide, chain not given here
B6: IGF-1 A (H8 A9 N21): B (H5D10Y16L17 A22) DPI A-COOH (ligand)
chain 1: GIVDECCHASCDLRRLEMYCN-OH
chain 2: GPEHLCGADLVDALYLVCGDAGFY
modifications: not fully specified (C-terminus); ends and bridges not checked
B7: IGF-1 A: B (H5D10Y16L17) DPI (ligand)
chain 1: GIVDECCFRSCDLRRLEMYCA-NH2
chain 2: GPEHLCGADLVDALYLVCGDRGFY-NH2
modifications: disulfide I:6-I:11, I:20-II:18, I:7-II:6; ends not checked
B8: IGF-1 A: B (E10Y16L17)-E31E32 B-COOH (ligand)
chain 1: GIVDECCFRSCDLRRLEMYCA-NH2
chain 2: GPETLCGAELVDALYLVCGDRGFYFNKPTEE-OH
modifications: disulfide I:6-I:11, I:20-II:18, I:7-II:6; ends not checked
B9: IGF-1 A: In (1-17)-IGF-1 B (18-30) (ligand)
chain 1: GIVDECCFRSCDLRRLEMYCA-NH2
chain 2: FVNQHLCGSHLVEALYLVCGDRGFYFNKPT-NH2
modifications: disulfide I:6-I:11, I:20-II:19, I:7-II:7; ends not checked
B10: IGF-1 A: In B (1-5)-IGF-1 B (YL) (6-30) (ligand)
A chain: GIVDECCFRSCDLRRLEMYCA-NH2
B chain: FVNQHLCGAELVDALYLVCGDRGFYFNKPT-NH2
modifications: disulfide I:6-I:11, I:20-II:19, I:7-II:7; not fully specified

Experiments:
human IGF-1 receptor [1] = biological target: T1, human IGF-1 receptor (human, UniProt P08069 31-1367); assay: SPA competition, [125I]-IGF-1, IGF-1R membranes
T1 construct: whole, on cells; Phosphorylation assay: receptor transfected HEK293 cells; also called IGF-1
Experimental: (§1) Non-specifically bound (NSB) radioactivity was measured in the wells with a four-fold concentration excess of “cold” native ligand than the highest concentration in test samples. Total bound radioactivity was detected in the wells with no competitor. Percent specific binding was calculated as following: % Specific Binding=(Bound-NSB/Total bound-NSB)×100. IC50 values were determined by using Origin software (OriginLab, Northampton, Mass.).

human insulin receptor [2] = biological target: T2, human insulin receptor (human, UniProt P06213 28-1382); assay: cell-based or functional assay
human IGF-1 receptor [3] = biological target: T1, human IGF-1 receptor; assay: cell-based or functional assay
human insulin receptor [4] = biological target: T2, human insulin receptor; assay: SPA competition, [125I]-insulin, IR membranes
Experimental: as §1

Row | Binder | activity (0.55 nM) (human IGF-1 receptor [1]) [%] | % IGF (human IGF-1 receptor [3]) [%] | also measured
1 | B1 | 2.4 | – | –
2 | B2 | 8.1 | 112 | % Insulin (human insulin receptor [2]): 1580%
3 | B3 | 13.6 | 181 | –
4 | B4 | 0.4 | – | –
5 | B5 | – | – | IC50 (human insulin receptor [4]): 1.08 nM
6 | B6 | 2.4 | 7.7 | % IGF-1 (in test) (human IGF-1 receptor [1]): 2.3%; IC50 (human IGF-1 receptor [1]): 22.8 nM
7 | B7 | 11.8 | 7.1 | –
8 | B8 | 3.1 | – | –
9 | B9 | 0.9 | – | –
10 | B10 | 2 | – | –

Reference: patent US20150148520A1 (INDIANA UNIVERSITY RESEARCH AND TECHNOLOGY, published 2015)
